Assay results reported in patent US20240238445A1, “INHIBITORS AND USES THEREOF” (NEURACLE SCIENCE CO., LTD., priority 2021, published 2024).

Columns and labels:
[1] = target: binding of FAM19A5 protein to full-length ectodomain of the LRRC4B protein (amino acids 36-576 of SEQ ID NO: 2) (Homo sapiens, UniProt Q7Z5A7); assay: Competitive inhibition assay, plate coated with full-length ectodomain of LRRC4B (amino acids 36-576); conditions: for inhibition of FAM19A5 binding to coated full-length LRRC4B ectodomain protein (in words): increasing concentrations, FAM19A5 5 ng/mL, 100 nM coat
How it was run: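 Wells are coated with 100 nM LRRC4B ectodomain (aa 36-576), and 5 ng/mL recombinant FAM19A5 is added with competitor: LRRC4B deletion constructs at increasing concentrations, or synthetic peptides at 20 nM. After incubation at 37 °C, bound FAM19A5 is detected with HRP-conjugated anti-FAM19A5 (1-65) antibody.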

[2] = test system: mouse primary cortical neurons; assay: Neurite growth of mouse primary cortical neurons in vitro; type: cell-based; conditions: for neurite growth / neurite outgrowth: treated days 1 and 2, assessed day 3, anti-beta-tubulin III, LRRC4B fragment 0.006 to 60 nM, versus control
Protocol: Next, primary cortical neurons (day 1 postnatal) were cultured in vitro with varying concentrations (0.006 to 60 nM) of the LRRC4B (453-576) protein fragment (i.e., amino acid residues 453-576 of SEQ ID NO: 2; SEQ ID NO: 7), and then at day 3 post-initial culture, the effect on neurite growth was assessed by immunostaining the cells with anti-beta-tubulin III antibody. Cells cultured with DMSO (“Veh”) were used as control.
Mouse hippocampal neurons were treated with LRRC4B peptides at 1 and 2 DIV to determine neurite growth. It was measured by using 3 different parameters, which are total neurites length, number of primary and secondary neurites. After the neurons were stained with beta-tubulin III at 3 DIV, neurites length and branch points were measured using Fiji (Image J, NIH, Bethesda). Individual neurons were selected by hand and these parameters were counted using the Simple neurite tracer plugin. Mouse spinal motor neurons sampled at postnatal day 1 were treated with 10 nM of NS101 and LRRC4B-peptides (dFB-dWY-JM31 and dFB-DY-JM31) at 1 and 2 DIV and immunostained with Tau-5 antibody at 3 DIV. Total neurite length and number of somas in images were measured by Neurphology Image J plugin.

[3] = day 3, compared to the control group

binding of FAM19A5 protein to full-length ectodomain of the LRRC4B protein (amino acids 36-576 of SEQ ID NO: 2), sequence (Q7Z5A7 44-132): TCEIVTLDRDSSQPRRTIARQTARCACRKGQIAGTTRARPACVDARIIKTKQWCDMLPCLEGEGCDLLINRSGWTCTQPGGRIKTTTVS

In the case of GYTYFTTVTVETLETQPGEE [FB-20], the “inhibition of interaction between FAM19A5 and the coated LRRC4B protein fragments (in words)” value ([1]; 20 nM peptide, statement covers both coats, LRRC4B (36-576) and LRRC4B (453-576)) is reported as “significantly decreased the interaction”, the “Inhibition rate (%) LRRC4B (amino acids 36-576)-hFc” value (shortened to “Inhibition rate (%) LRRC4B”) ([1]; Table 8, 20 nM peptide, FAM19A5 5 ng/ml) is reported as 77.0% and the “Inhibition rate (%) LRRC4B” value ([1]; Table 9, deletion variants, 20 nM peptide, FAM19A5 5 ng/ml) is reported as 84.3%. For the same molecule, the “Inhibition rate (%) LRRC4B” value ([1]; Table 10, alanine/asparagine mutants) was 77.0% and the “neurite growth / neurite outgrowth” value [2] was “Increased neurite outgrowth”.

B1: LRRC4B (453-576): LRRC4B ectodomain fragment, amino acids 453-576 of SEQ ID NO: 2; FLAG-tagged or hFc-fused (protein)
chain: VSAVDPVAAGGTGSGGGGPGGSGGVGGGSGGYTYFTTVTVETLETQPGEEALQPRGTEKEPPGPTTDGVWGGGRPGDAAGPASSSTTAPAPRSSRPTEKAFTVPITDVTENALKDLDDVMKTTK
modifications: FLAG tag or human Fc
notes: FLAG-tagged or hFc-fused
B1 was tested, and the “inhibition of FAM19A5 binding to coated full-length LRRC4B ectodomain protein (in words)” value [1] was “able to inhibit FAM19A5 protein from binding”, the neurite length [2, 3] was “increased neurite length” and the “number of branching points” value [2, 3] was “increased number of branching points”. The “number of primary and secondary neurites” value [2, 3] was “increased number of primary and secondary neurites” and the “neurite growth / neurite outgrowth” value [2] was “increased neurite growth in a dose-dependent manner”.

B2: LRRC4B (498-576): LRRC4B ectodomain fragment, amino acids 498-576 of SEQ ID NO: 2 (protein)
chain: QPGEEALQPRGTEKEPPGPTTDGVWGGGRPGDAAGPASSSTTAPAPRSSRPTEKAFTVPITDVTENALKDLDDVMKTTK
For B2, the “inhibition of FAM19A5 binding to coated full-length LRRC4B ectodomain protein (in words)” value [1] was “much inferior in their ability to inhibit the interaction”.
